Data on one variant can be found in IntAct's records for PubMed 21360678.

B1: Serine/threonine-protein phosphatase 5 (Homo sapiens), P53041 (parent)
chain: MAMAEGERTECAEPPRDEPPADGALKRAEELKTQANDYFKAKDYENAIKFYSQAIELNPSNAIYYGNRSLAYLRTECYGYALGDATRAIELDKKYIKGYYRRAASNMALGKFRAALRDYETVVKVKPHDKDAKMKYQECNKIVKQKAFERAIAGDEHKRSVVDSLDIESMTIEDEYSGPKLEDGKVTISFMKELMQWYKDQKKLHRKCAYQILVQVKEVLSKLSTLVETTLKETEKITVCGDTHGQFYDLLNIFELNGLPSETNPYIFNGDFVDRGSFSVEVILTLFGFKLLYPDHFHLLRGNHETDNMNQIYGFEGEVKAKYTAQMYELFSEVFEWLPLAQCINGKVLIMHGGLFSEDGVTLDDIRKIERNRQPPDSGPMCDLLWSDPQPQNGRSISKRGVSCQFGPDVTKAFLEENNLDYIIRSHEVKAEGYEVAHGGRCVTVFSAPNYCDQMGNKASYIHLQGSDLRPQFHQFTAVPHPNVKPMAYANTLLQLGMM
partner: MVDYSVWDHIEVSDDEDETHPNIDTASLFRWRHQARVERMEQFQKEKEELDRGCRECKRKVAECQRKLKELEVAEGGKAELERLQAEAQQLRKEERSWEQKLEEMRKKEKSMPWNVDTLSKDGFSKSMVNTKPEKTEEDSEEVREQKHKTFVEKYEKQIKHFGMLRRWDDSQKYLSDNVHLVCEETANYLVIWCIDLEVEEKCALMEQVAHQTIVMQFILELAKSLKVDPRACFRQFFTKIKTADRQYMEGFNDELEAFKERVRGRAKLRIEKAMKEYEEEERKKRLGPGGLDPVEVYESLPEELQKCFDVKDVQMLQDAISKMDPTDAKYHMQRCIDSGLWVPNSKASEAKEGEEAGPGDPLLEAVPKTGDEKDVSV

Variants of B1 are the subject of the assay. To be noted: with cdc37_human CDC37, Q16543.
K97A;R101A: the “effect of a mutation on the interaction” value is listed as “disrupting interaction”.
